How the values were obtained:
[1] = biological target: T1, Polβ(T304I), purified recombinant (human, UniProt P06746 1-335, T304I); assay: SPR; mean of repeats
[2] = biological target: T2, Polβ(WT), purified recombinant (human, UniProt P06746 1-335); assay: SPR; mean of repeats
[3] = biological target: T1, Polβ(T304I), purified recombinant; assay: SPR; representative experiment
[4] = biological target: T2, Polβ(WT), purified recombinant; assay: SPR; representative experiment

B1: NTD-XRCC1(1-151)-His (domain or fragment)
chain: MPEIRLRHVVSCSSQDSTHCAENLLKADTYRKWRAAKAGEKTISVVLQLEKEEQIHSVDIGNDGSAFVEVLVGSSAGGAGEQDYEVLLVTSSFMSPSESRSGSNPNRVRMFGPDKLVRAAAEKRWDRVKIVCSQPYSKDSPFGLSFVRFHS
With B1 the Kd [1] was 3.3 µM, the Kd [2] was 534 nM and the Kd [3] was 3.65 µM. The Kd [4] was 358 nM.

Source: publication PMC6614843 (2019)
